{
  "source": "patent US20110318377",
  "key": {"[1]": {"tested_on": "full-length synthetic Tat protein (72 amino acids), unmodified"}, "[2]": {"tested_on": "histones purified from calf thymus"}},
  "data": [
    {"substance": "recombinant G9a (Upstate)", "values": [
      {"measurement": "in vitro methylation with radiolabeled SAM, autoradiography", "setting": "[1]", "result": "Incubation with the lysine methyltransferase G9a did not result in methylation of Tat"},
      {"measurement": "in vitro methylation with radiolabeled SAM, autoradiography", "setting": "[2]", "result": "led to the successful methylation of histones as expected"}
    ]}
  ]
}
